The chains are these.
B1: LXRα-VP16 (wild-type liver X receptor-α fused to VP16) [human] / Gal4-SRC1 (aa 570-780) [not stated] (parent)
chain 1: MSLWLGAPVPDIPPDSAVELWKPGAQDASSQAQGGSSCILREEARMPHSAGGTAGVGLEAAEPTALLTRAEPPSEPTEIRPQKRKKGPAPKMLGNELCSVCGDKASGFHYNVLSCEGCKGFFRRSVIKGAHYICHSGGHCPMDTYMRRKCQECRLRKCRQAGMREECVLSEEQIRLKKLKRQEEEQAHATSLPPRASSPPQILPQLSPEQLGMIEKLVAAQQQCNRRSFSDRLRVTPWPMAPDPHSREARQQRFAHFTELAIVSVQEIVDFAKQLPGFLQLSREDQIALLKTSAIEVMLLETSRRYNPGSESITFLKDFSYNREDFAKAGLQVEFINPIFEFSRAMNELQLNDAEFALLIAISIFSADRPNVQDQLQVERLQHTYVEALHAYVSIHHPHDRLMFPRMLMKLVSLRTLSSVHSEQVFALRLQDKKLPPLLSEIWDVHE
chain 2: PSRLNIQPAKAESKDNKEIASILNEMIQSDNSSSDGKPLDSGLLHNNDRLSDGDSKYSQTSHKLVQLLTTTAEQQLRHADIDTSCKDVLSCTGTSNSASANSSGGSCPSSHSSLTERHKILHRLLQEGSPSDITTLSVEPDKKDSASTSVSVTGQVQGNSSIKLELDASKKKESKDHQLLRYLLDKDEKDLRSTPNLSLDDVKVKVEKKEQ

Here are results for one variant from PMC11496107.

The first experiment covers variants of B1. The experiment is described as follows: mammalian two-hybrid assay (luciferase reporter, HEK293 cells). The settings on record: with Gal4-SRC1 (aa 570-780); GOF sub-panel; highest T0901317 (T09) dose plotted (rightmost point); 20 h; parent: 100; read off a plot.
On to chain 1 MSLWLGAPVPDIPPDSAVELWKPGAQDASSQAQGGSSCILREEARMPHSAGGTAGVGLEAAEPTALLTRAEPPSEPTEIRPQKRKKGPAPKMLGNELCSVCGDKASGFHYNVLSCEGCKGFFRRSVIKGAHYICHSGGHCPMDTYMRRKCQECRLRKCRQAGMREECVLSEEQIRLKKLKRQEEEQAHATSLPPRASSPPQILPQLSPEQLGMIEKLVAAQQQCNRRSFSDRLRVTPWPMAPDPHSREARQQRFAHFTELAIVSVQEIVDFAKQLPGFLQLSREDQIALLKTSAIEVMLLETSRRYNPGSESITFLKDFSYNREDFAKAGLQVEFINPIFEFSRAVNELQLNDAEFALLIAISIFSADRPNVQDQLQVERLQHTYVEALHAYVSIHHPHDRLMFPRMLMKLVSLRTLSSVHSEQVFALRLQDKKLPPLLSEIWDVHE [chain 1 M346V], for which the percent of parent stood at 100 % WT.

Still in this experiment, the particulars now being: with Gal4-SRC1 (aa 570-780); GOF sub-panel; untreated condition (leftmost point, plotted an order of magnitude below the lowest T09 dose); 20 h; parent: 100; read off a plot.
For chain 1 MSLWLGAPVPDIPPDSAVELWKPGAQDASSQAQGGSSCILREEARMPHSAGGTAGVGLEAAEPTALLTRAEPPSEPTEIRPQKRKKGPAPKMLGNELCSVCGDKASGFHYNVLSCEGCKGFFRRSVIKGAHYICHSGGHCPMDTYMRRKCQECRLRKCRQAGMREECVLSEEQIRLKKLKRQEEEQAHATSLPPRASSPPQILPQLSPEQLGMIEKLVAAQQQCNRRSFSDRLRVTPWPMAPDPHSREARQQRFAHFTELAIVSVQEIVDFAKQLPGFLQLSREDQIALLKTSAIEVMLLETSRRYNPGSESITFLKDFSYNREDFAKAGLQVEFINPIFEFSRAVNELQLNDAEFALLIAISIFSADRPNVQDQLQVERLQHTYVEALHAYVSIHHPHDRLMFPRMLMKLVSLRTLSSVHSEQVFALRLQDKKLPPLLSEIWDVHE [chain 1 M346V], the percent of parent is 18 % WT.
